What was measured:
Experiment in all cases: HPLC of vanillin formed
[1] = substrate: C=Cc1ccc(O)c(OC)c1; type: biochemical, Herbaspirillum seropedicae; conditions: measured under optimal conditions (pH 7.0, 40 °C), 10% glycerol
Text: (§1) HPLC of vanillin formed on HsCCO

[2] = substrate: CC=Cc1ccc(O)c(OC)c1; type: biochemical, Herbaspirillum seropedicae; conditions: measured under optimal conditions (pH 7.0, 40 °C), 10% glycerol
Text: as §1

[3] = substrate: C=Cc1ccc(O)c(OC)c1; type: biochemical, Paracoccaceae bacterium; conditions: measured under optimal conditions (pH 9.0, 35 °C), 10% glycerol
Text: (§2) HPLC of vanillin formed on RbCCO

[4] = substrate: CC=Cc1ccc(O)c(OC)c1; type: biochemical, Paracoccaceae bacterium; conditions: measured under optimal conditions (pH 9.0, 35 °C), 10% glycerol
Text: as §2

Protein | Km [1] [mM] | Vmax [1] [µmol/min/mg] | Km [2] [mM] | Vmax [2] [µmol/min/mg] | Km [3] [mM] | Vmax [3] [µmol/min/mg] | Km [4] [mM] | Vmax [4] [µmol/min/mg]
HsCCO (Herbaspirillum seropedicae) (protein, codon-optimized gene, NdeI/XhoI in pET-29a(+), His-tagged, E. coli BL21(DE3), Ni-NTA, about 55 kDa on SDS-PAGE) MSMQYPATPEFQGMYRPSRVEASVQALEVVGQLPAQLQGCFYQVAPDPAYPPMLGQDIFFNGDGMVSAFRFGQGQVSLTRRYVQTERLKAQRQAGRSLNGIYRNIYTNAPEAASDNTTANTTVIKHAGVLLALKEDSLPYAMDPVTLETRGLWDFHGQVKSATFTAHPKICPQSGSMLCFAYEAKGDGTPDIAYYEIDAAGKLIRETWFQAPYAAMIHDFAVTENYVIFPIIPLTVDVERMKRGGQHFQWQPDLPQLFGILPRAGDAADVRWFYGPADGFQGHTLNAYELGRKLILDMPVTSGNVFYFFPQADGFVPSPETLKSGLARWTFDLDADNDQVMPEPLTQFPCEFPRCDERYSGRPYQHGFMLAFDPTLPFDAAALGAPPFQFFNQLAHVNVRTGETRTWYAGDAHCFQEPVFVPRSADAPEGDGFLLSLLNDLRSGATELVILDTHDLSAGPVARVQIPLRMRMSLHGNWSSD | 1.65 | 0.0279 | 1.55 | 0.0741 | – | – | – | –
RbCCO (Paracoccaceae bacterium) (protein, codon-optimized gene, BamHI/XhoI in pET-29a(+), His-tagged, co-expressed with GroEL/GroES (pGro7) in E. coli BL21(DE3), Ni-NTA, about 55 kDa on SDS-PAGE) MTRPFPKTPEFSGSLYRPARFEGSVFDLEVEGRVPEDIHGTFFQVAPDPQFPPMRGNDIFFNGDGAVHAFRFANGAVDFQRRYVMTDRLKAQRAERESLFGLYRNGYTNDPRADGVHMGTANTNVVQHNGRLLALKEDSPPYALDPVTLETHGLFDFDGQLTSPTFTAHPKFDPETGAMLCFGYEAKGEATPDIVYYEIDSQGRKQREIWLRGPYAAMIHDFAVTRNYIIFPLMPLTPDLDRIRKGGNHFEWQPGLEQVFGVLPRDGDGTDVRWFTAPNGFQGHTLNAFDDGRGRIFVDMPVTDGNIFYFFPQSDGHVPPPETLSSRMMRWTFDMNNPGNALSMAPITDFACEFPKCDPRYSGHEYRHGFVIGMDMTRPFDAERLGAPPFQFFNLLSHVDVATRRVKSWFADAQTCFQEPVFVPRSANAPEGEGWVIALANRLVDQTTDLVILDAQHMDEGPVAVVHLPVRLRMSLHGSWVPAAA | – | – | – | – | 0.85 | 0.02 | 2.24 | 0.0765
